# Data taken from patent US7067618B1, “Medicinal preparations” (Kyowa Hakko Kogyo Co., Ltd., priority 1998, dated 2006).
# Legend:
# [1] = Release of lactose from insulin-lactose reaction products caused by pH lowering (HPLC); format: physicochemical; conditions: for Proportion by HPLC, Release of Lactose Caused by pH Lowering to 5.0: pH 5.0, 40° C.; for Proportion by HPLC, Release of Lactose Caused by pH Lowering to 5.9: pH 5.9, 40° C.; for Proportion by HPLC, Release of Lactose Caused by pH Lowering to 6.7: pH 6.7, 40° C.
# Description: A solution of 0.2 mg of bovine pancreatic insulin (Wako Pure Chemical Industries, Itd.) in 1 mL of a 2 mmol/L aqueous solution of hydrochloric acid, a solution of 320 mg of anhydrous β-lactose (Nacalai Tesque, Inc.) in 2 mL of distilled water, and 1 mL of a 200 mmol/L phosphate buffer (pH 8.4) were mixed in a test tube to give a mixture having a pH of about 8.1. The test tube was put into a constant temperature water bath at 40° C. to cause reaction. The reaction mixture was sampled after 0, 5 and 24 hours, and analyzed for products obtained by the reaction of insulin with lactose by high performance liquid chromatography (HPLC) under the following conditions. • Column: YMC-Pack ODS-A or YMC-Pack ODS-AM, 6.0×150 mm • Mobile phase: 100 mmol/L phosphate buffer (pH 8.0) containing 0.001% Triton X-100: acetonitrile containing 0.001% Triton X-100=25 parts by volume: 9 parts by volume • Flow rate: 1.3 mL/minute • Detection wavelength: 210 nm
# (§1) A solution of 0.2 mg of bovine pancreatic insulin (Wako Pure Chemical Industries, Itd.) in 1 mL of a 2 mmol/L aqueous solution of hydrochloric acid, a solution of 320 mg of anhydrous β-lactose (Nacalai Tesque, Inc.) in 2 mL of distilled water, and 1 mL of a 200 mmol/L phosphate buffer (pH 8.4) were mixed in a test tube. The mixture was subjected to reaction at 40° C. for 24 hours. To 3 mL of the resulting solution was added 0.5 mL of a 50 mmol/L aqueous solution of citric acid to adjust the pH to 6.7, and the mixture was subjected to reaction at 40° C. The samples collected from the reaction mixture 0 and 30 minutes after the start of the reaction were analyzed for products obtained by the reaction of insulin with lactose by HPLC in a manner similar to that in Example 1.
# as §1, with “100” for “50”, “5.9,” for “6.7,”, “The” for “The samples collected from the”, “was intermittently” for “0 and 30 minutes after the start of the reaction were”
# as §1, with “a 150” for “a 50”, “to 5.0,” for “to 6.7,”, “The” for “The samples collected from the”, “mixture was intermittently sampled” for “mixture 0”, “and” for “and 30 minutes after the start of the reaction were”
# [2] = Release of sialyllactose from insulin-sialyllactose reaction products caused by pH lowering (HPLC); format: physicochemical; conditions: for Proportion by HPLC, Release of Sialyllactose Caused by pH Lowering to 5.3: pH 5.3, 40° C.; for Proportion by HPLC, Release of Sialyllactose Caused by pH Lowering to 6.4: pH 6.4, 40° C.
# Description: Bovine pancreatic insulin (0.2 mg, Wako Pure Chemical Industries, Ltd.) was dissolved in 1 mL of a 1 mmol/L aqueous solution of hydrochloric acid. To about 25 mg of sialyllactose of 75% purity (a mixture of 3′-sialyllactose and 6′-sialyllactose, Boehringer Mannheim GmbH) was added 0.1 mL of a 600 mmol/L aqueous solution of disodium hydrogenphosphate to make a solution. The insulin solution (0.1 mL) and the sialyllactose solution (0.1 mL) were mixed in a test tube to give a mixture having a pH of about 7.8. The test tube was put into a constant temperature water bath at 40° C. to cause reaction and left for 3 days. The reaction mixture was sampled intermittently, followed by centrifugation at 3000 rpm for 20 minutes to remove insoluble materials. The samples collected 0, 1 and 3 days after the start of the reaction were analyzed for products obtained by the reaction of insulin with sialyllactose by HPLC under the following conditions. • Column: YMC-Pack ODS-AP, 4.6×150 mm • Mobile phase: 20 mmol/L phosphate buffer (pH 8.0) containing 0.001% Triton X-100: acetonitrile containing 0.001% Triton X-100=411 parts by volume: 140 parts by volume • Flow rate: 1.3 mL/minute • Detection wavelength: 220 nm
# (§2) Bovine pancreatic insulin (0.2 mg, Wako Pure Chemical Industries, Ltd.) was dissolved in 1 mL of a 1 mmol/L aqueous solution of hydrochloric acid. To about 25 mg of sialyllactose of 75% purity (a mixture of 3′-sialyllactose and 6′-sialyllactose, Boehringer Mannheim GmbH) was added 0.1 mL of a 600 mmol/L aqueous solution of disodium hydrogenphosphate to make a solution. The insulin solution (0.1 mL) and the sialyllactose solution (0.1 mL) were mixed in a test tube to give a solution having a pH of about 7.8. This solution was subjected to reaction at 40° C. for 3 days and then centrifuged at 3000 rpm for 20 minutes. To 40 μL of the supernatant was added 0.04 mL of a 50 mmol/L-aqueous solution of citric acid to adjust the pH to 6.4, and the resulting solution was subjected to reaction at 40° C. The reaction mixture was intermittently sampled and analyzed for products obtained by the reaction of insulin with sialyllactose by HPLC in a manner similar to that in Example 2.
# as §2, with “centrifuged 1” for “centrifuged”, “100 mmol/L aqueous” for “50 mmol/L-aqueous”, “5.3,” for “6.4,”
substance,measurement,setting,value
Insulin: bovine pancreatic insulin (Wako Pure Chemical Industries); free insulin to which no sugar is bound,"Proportion by HPLC, Release of Lactose Caused by pH Lowering to 5.0",[1]; 0 minute,21%
same,"Proportion by HPLC, Release of Lactose Caused by pH Lowering to 5.0",[1]; 2 minutes,60%
same,"Proportion by HPLC, Release of Lactose Caused by pH Lowering to 5.0",[1]; 10 minutes,83%
same,"Proportion by HPLC, Release of Lactose Caused by pH Lowering to 5.0",[1]; 30 minutes,93%
same,"Proportion by HPLC, Release of Lactose Caused by pH Lowering to 5.0",[1]; 60 minutes,95%
same,"Proportion by HPLC, Release of Lactose Caused by pH Lowering to 5.9",[1]; 0 minute,24%
same,"Proportion by HPLC, Release of Lactose Caused by pH Lowering to 5.9",[1]; 2 minutes,35%
same,"Proportion by HPLC, Release of Lactose Caused by pH Lowering to 5.9",[1]; 10 minutes,59%
same,"Proportion by HPLC, Release of Lactose Caused by pH Lowering to 5.9",[1]; 30 minutes,76%
same,"Proportion by HPLC, Release of Lactose Caused by pH Lowering to 5.9",[1]; 60 minutes,75%
same,"Proportion by HPLC, Release of Lactose Caused by pH Lowering to 6.7",[1]; 0 minute,25%
same,"Proportion by HPLC, Release of Lactose Caused by pH Lowering to 6.7",[1]; 30 minutes,45%
same,"Proportion by HPLC, Release of Sialyllactose Caused by pH Lowering to 5.3",[2]; 0 minute,31%
same,"Proportion by HPLC, Release of Sialyllactose Caused by pH Lowering to 5.3",[2]; 10 minutes,58%
same,"Proportion by HPLC, Release of Sialyllactose Caused by pH Lowering to 5.3",[2]; 30 minutes,80%
same,"Proportion by HPLC, Release of Sialyllactose Caused by pH Lowering to 6.4",[2]; 0 minute,31%
same,"Proportion by HPLC, Release of Sialyllactose Caused by pH Lowering to 6.4",[2]; 10 minutes,44%
same,"Proportion by HPLC, Release of Sialyllactose Caused by pH Lowering to 6.4",[2]; 30 minutes,50%
